The text below walks through data of publication PMC5879659 (Proceedings of the National Academy of Sciences of the …, 2018).

For orientation: Kd means the concentration at which binding is half-saturated. A low value points to a tighter complex. One may read the koff as the first-order rate constant of dissociation. The term kon denotes the rate constant with which the complex forms.

Square brackets hold non-standard residues; d marks the D form. Ends that are not written are not given here. Hyp = O=C(O)[C@@H]1C[C@@H](O)CN1

For this assay, the target named is T1, HAESA LRR ectodomain (Arabidopsis thaliana, UniProt P47735 15-621).
T1 sequence (looked up): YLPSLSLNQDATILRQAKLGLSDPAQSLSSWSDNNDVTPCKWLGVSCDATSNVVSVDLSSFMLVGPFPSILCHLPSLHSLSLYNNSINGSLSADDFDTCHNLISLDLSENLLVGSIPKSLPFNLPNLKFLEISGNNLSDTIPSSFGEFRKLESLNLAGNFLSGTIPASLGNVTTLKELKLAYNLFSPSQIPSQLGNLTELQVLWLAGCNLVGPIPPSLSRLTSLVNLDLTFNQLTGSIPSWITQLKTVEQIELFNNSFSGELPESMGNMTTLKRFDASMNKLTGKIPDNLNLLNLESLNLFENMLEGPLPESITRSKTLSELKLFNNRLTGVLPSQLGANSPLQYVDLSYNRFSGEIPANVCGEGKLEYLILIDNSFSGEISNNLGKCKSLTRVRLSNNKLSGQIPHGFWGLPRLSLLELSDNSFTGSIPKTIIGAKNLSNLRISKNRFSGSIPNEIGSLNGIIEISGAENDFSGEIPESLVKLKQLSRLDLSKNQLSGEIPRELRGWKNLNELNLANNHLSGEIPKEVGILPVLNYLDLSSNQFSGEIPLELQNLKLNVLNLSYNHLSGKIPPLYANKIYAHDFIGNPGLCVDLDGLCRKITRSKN
The experiment in a line: grating-coupled interferometry.

For YVPIPPSA[Hyp]SKRHN [INFLORESCENCE DEFICIENT IN ABSCISSION (IDA) peptide, Y-IDA], the dissociation constant (Kd) was approximately 30 µM, the koff was approximately 2 s⁻¹ and the on-rate (kon) is approximately 60000 M⁻¹ s⁻¹.
